Molecular target: the molecule itself
Test: SEC; Superdex S200 10/300 GL, 4 °C; 100-μl injections of 1.25 mg/ml and 0.25 mg/ml CC3ext; in-line MALS gave no molecular weight because of elution in the void volume

B1: STIM1 CC3ext (residues 388-491) (domain or fragment, human, UniProt Q13586-1 388-491, looked up)
chain: NTLFGTFHVAHSSSLDDVDHKILTAKQALSEVTAALRERLHRWQQIEILCGFQIVNNPGIHSLVAALNIDPSWMGSTRPNPAHFIMTDDVDDMDEEIVSPLSMQ
notes: STIM1, human, residues 388-491 (CC3ext); Subcloned into pET-28a via NheI and XhoI; monomer 12.2 kDa on SDS-PAGE; also called recombinant CC3 fragment
Question: Does B1 bind?
Answer: Result: binds

Reference: article PMC4246082, “A Coiled-coil Clamp Controls Both Conformation and Clustering of Stromal Interaction Molecule 1 (STIM1)*” (The Journal of Biological Chemistry, 2014)
